T1: truncated cTfR1 of SEQ ID NO:123 (cynomolgus monkey, UniProt Q5RDH6 122-760 (Pongo abelii entry))
T1 construct: also called cynomolgus TfR1
T1 chain: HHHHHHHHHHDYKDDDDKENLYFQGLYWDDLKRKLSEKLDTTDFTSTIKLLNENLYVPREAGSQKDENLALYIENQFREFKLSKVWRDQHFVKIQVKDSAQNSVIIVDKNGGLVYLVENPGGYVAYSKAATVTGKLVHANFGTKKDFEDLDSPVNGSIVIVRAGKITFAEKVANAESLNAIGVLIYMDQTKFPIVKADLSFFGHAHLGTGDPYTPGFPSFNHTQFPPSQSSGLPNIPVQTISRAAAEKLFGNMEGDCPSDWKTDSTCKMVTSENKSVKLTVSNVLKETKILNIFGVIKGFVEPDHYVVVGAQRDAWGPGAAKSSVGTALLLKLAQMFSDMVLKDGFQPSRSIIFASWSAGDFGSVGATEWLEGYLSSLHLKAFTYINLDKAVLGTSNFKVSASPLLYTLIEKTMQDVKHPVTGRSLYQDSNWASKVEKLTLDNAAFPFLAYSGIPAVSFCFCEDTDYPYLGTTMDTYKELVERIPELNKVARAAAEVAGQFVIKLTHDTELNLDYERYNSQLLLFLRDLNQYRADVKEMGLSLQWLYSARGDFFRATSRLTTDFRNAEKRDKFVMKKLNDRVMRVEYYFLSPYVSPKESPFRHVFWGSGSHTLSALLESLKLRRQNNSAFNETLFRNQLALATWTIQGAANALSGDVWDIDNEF

B1: h26D3-HC6_DS, VL-first (scFv)
scFv: DIQMTQSPSSVSASVGDRVTITCKSSQSLLYSTNQKNYLAWYQQKPGKAPKLLIYWASTRESGVPSRFSGSGSGTDFTLTISSLQPEDFATYYCQQYFIYPRTFGCGTKVEIKGGGGSGGGGSGGGGSGGGGSEVQLVQSGAEVKKPGSSVKVSCKASGYIFTDYNMDWVRQAPGQCLEWIGDINPDADTTSYNEKFKGRATLTVDKSTSTAYMELSSLRSEDTAVYYCARGGYSGSSYYHPMDYWGQGTLVTVSS
B2: h26D3 HC6 DS T91A (scFv)
scFv: HHHHHHGGGGSGGGGSGGGGSGGGGSDIQMTQSPSSVSASVGDRVTITCKSSQSLLYSTNQKNYLAWYQQKPGKAPKLLIYWASTRESGVPSRFSGSGSGTDFTLTISSLQPEDFATYYCQQYFIYPRTFGCGTKVEIKGGGGSGGGGSGGGGSGGGGSEVQLVQSGAEVKKPGSSVKVSCKASGYIFTDYNMDWVRQAPGQCLEWIGDINPDADTTSYNEKFKGRATLTVDKSTSTAYMELSSLRSEDAAVYYCARGGYSGSSYYHPMDYWGQGTLVTVSS
notes: also called h26D3 DS T91A
B3: h26D3 HC6 DS S122K (scFv)
scFv: B2 scFv with A250T, S281K
notes: also called h26D3 DS S122K
B4: h26D3 HC6 DS T91S S122K (scFv)
scFv: B2 scFv with A250S, S281K
notes: also called h26D3 DS T91S S122K
B5: h26D3 HC6 DS V11R (scFv)
scFv: B2 scFv with V170R, A250T
notes: also called h26D3 DS V11R
B6: h26D3 HC6 DS V11R T91A (scFv)
scFv: B2 scFv with V170R
notes: also called h26D3 DS V11R T91A
B7: h26D3 HC6 DS L118S (scFv)
scFv: B2 scFv with A250T, L277S
notes: also called h26D3 DS L118S
B8: h26D3 HC6 DS S16E (scFv)
scFv: B2 scFv with S175E, A250T
notes: also called h26D3 DS S16E
B9: h26D3 HC6 DS S16E L118S (scFv)
scFv: B2 scFv with S175E, A250T, L277S
notes: also called h26D3 DS S16E L118S
B10: h26D3 HC6 DS T91S T120K (scFv)
scFv: B2 scFv with A250S, T279K
notes: also called h26D3 DS T91S T120K
B11: h26D3 HC6 DS T120K (scFv)
scFv: B2 scFv with A250T, T279K
notes: also called h26D3 DS T120K
B12: h26D3 HC6 DS V11R T120K (scFv)
scFv: B2 scFv with V170R, A250T, T279K
notes: also called h26D3 DS V11R T120K
B13: h26D3 variant HC2 Fab (Fab, V domains shown)
VH: EVQLVQSGAEVKKPGSSVKVSCKASGYIFTDANMDWVRQAPGQGLEWIGDINPDYDTTSYNEKFKGRATLTVDKSTSTAYMELSSLRSEDTAVYYCARGGYSGSSYYHPMDYWGQGTLVTVSS
VL: DIQMTQSPSSVSASVGDRVTITCKSSQSLLYSTNQKNYLAWYQQKPGKAPKLLIYWASTRESGVPSRFSGSGSGTDFTLTISSLQPEDFATYYCQQYFIYPRTFGQGTKVEIK
notes: Single-mutant His-tagged Fab; also called Y32A
B14: h26D3 variant HC6 Fab (Fab, V domains shown)
VH: B13 VH with A32Y, Y55A
VL: B13 VL
notes: Single-mutant His-tagged Fab; also called Y55A
B15: h26D3 variant HC3 Fab (Fab, V domains shown)
VH: B13 VH with A32Y, D35A
VL: B13 VL
notes: Single-mutant His-tagged Fab; also called D35A
B16: h26D3 variant HC4 Fab (Fab, V domains shown)
VH: B13 VH with A32Y, D50A
VL: B13 VL
notes: Single-mutant His-tagged Fab; also called D50A
B17: h26D3 variant HC5 Fab (Fab, V domains shown)
VH: B13 VH with A32Y, D54A
VL: B13 VL
notes: Single-mutant His-tagged Fab; also called D54A

Residue numbers refer to the chain shown, from its start. Numbers in names are those of the source.

The first assay addresses T1, truncated cTfR1 of SEQ ID NO:123. Kind of assay: SPR, FLAG-captured TfR1, scFv injected, 1:1 fit. The procedure:
(§1) The interaction was measured using the single cycle kinetics method with a contact time of 120 s at a flow rate of 30 μl/min followed by a dissociation time of 600 s. Regeneration of the surface between cycles was done by injecting 10 mM glycine-HCl, pH 1.7. The binding data was fitted to a 1:1 interaction model. The scFv variants were diluted in HBS-EP+ (Cytiva. #BR100669). Experiments were performed at 25° C.
In the case of B1, the Kd is 246 nM, the koff came out at 0.0114 s⁻¹ and the kon was found to be 47600 M⁻¹ s⁻¹.

For B2, binding was characterised by a dissociation constant (Kd) of 240 nM, the koff was 0.0111 s⁻¹ and the kon turned out to be 46200 M⁻¹ s⁻¹.

As to B3, the Kd was found to be 170 nM, the koff came to 0.0103 s⁻¹ and the kon was 61500 M⁻¹ s⁻¹.

B4 returned a Kd of 221 nM, a koff of 0.0108 s⁻¹ and a kon of 48600 M⁻¹ s⁻¹.

On to B5, for which binding was characterised by a dissociation constant (Kd) of 222 nM, the koff came out at 0.0113 s⁻¹ and the kon was 51500 M⁻¹ s⁻¹.

B6 showed a Kd of 206 nM, a koff of 0.012 s⁻¹ and a kon of 58100 M⁻¹ s⁻¹.

B7 returned a Kd of 243 nM, a koff of 0.0107 s⁻¹ and a kon of 44000 M⁻¹ s⁻¹.

B8 registered a Kd of 277 nM, a koff of 0.0121 s⁻¹ and a kon of 43800 M⁻¹ s⁻¹.

As for B9, binding was characterised by a dissociation constant (Kd) of 261 nM, the koff was 0.0109 s⁻¹ and the kon was found to be 41700 M⁻¹ s⁻¹.

B10 registered a Kd of 245 nM, a koff of 0.0115 s⁻¹ and a kon of 46700 M⁻¹ s⁻¹.

Consider B11, for which the dissociation constant Kd stood at 197 nM, the koff stood at 0.0113 s⁻¹ and the kon came out at 57400 M⁻¹ s⁻¹.

Molecule B12 had a Kd of 201 nM, a koff of 0.0124 s⁻¹ and a kon of 61300 M⁻¹ s⁻¹.

For the next assay, the target named is T2, truncated hTfR1 of SEQ ID NO:122 (human, UniProt P02786 122-760).
T2 construct: also called human TfR1; Human TfR1
T2 sequence (P02786 other isoform, or with tags, fused parts or gaps limits assumed): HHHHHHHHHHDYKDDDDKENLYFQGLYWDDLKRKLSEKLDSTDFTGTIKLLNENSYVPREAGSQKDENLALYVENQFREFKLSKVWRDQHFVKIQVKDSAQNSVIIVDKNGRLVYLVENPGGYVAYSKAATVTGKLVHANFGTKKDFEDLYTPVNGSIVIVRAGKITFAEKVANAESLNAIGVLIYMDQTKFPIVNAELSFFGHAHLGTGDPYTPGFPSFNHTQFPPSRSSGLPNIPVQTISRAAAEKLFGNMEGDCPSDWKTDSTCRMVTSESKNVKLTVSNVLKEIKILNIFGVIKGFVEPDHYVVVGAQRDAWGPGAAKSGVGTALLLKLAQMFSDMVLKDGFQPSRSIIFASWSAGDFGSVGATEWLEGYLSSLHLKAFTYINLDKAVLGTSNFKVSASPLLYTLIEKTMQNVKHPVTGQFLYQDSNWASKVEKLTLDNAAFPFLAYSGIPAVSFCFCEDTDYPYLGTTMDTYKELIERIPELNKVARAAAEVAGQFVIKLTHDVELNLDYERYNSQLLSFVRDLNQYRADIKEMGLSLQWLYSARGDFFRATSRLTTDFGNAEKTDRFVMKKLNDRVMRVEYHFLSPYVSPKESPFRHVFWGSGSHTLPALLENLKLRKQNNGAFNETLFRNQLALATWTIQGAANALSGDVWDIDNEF
Kind of assay: SPR, FLAG-captured TfR1, scFv injected, 1:1 fit. Here is the method:
as §1
B1 came in with a Kd of 68.9 nM, a koff of 0.00434 s⁻¹ and a kon of 63500 M⁻¹ s⁻¹.

B2 had a Kd of 59.7 nM, a koff of 0.00388 s⁻¹ and a kon of 65000 M⁻¹ s⁻¹.

B3: binding was put at a Kd of 53.7 nM, the koff is 0.00407 s⁻¹ and the kon was determined as 76400 M⁻¹ s⁻¹.

B4 returned a Kd of 50.5 nM, a koff of 0.0038 s⁻¹ and a kon of 76200 M⁻¹ s⁻¹.

For the molecule B5, the affinity, expressed as Kd, was 54 nM; the koff was found to be 0.00465 s⁻¹; the kon was found to be 90400 M⁻¹ s⁻¹.

For the molecule B6, binding was put at a Kd of 61.3 nM, the koff stood at 0.00458 s⁻¹ and the kon was found to be 76100 M⁻¹ s⁻¹.

With B7, the Kd was found to be 60 nM, the koff amounted to 0.00393 s⁻¹ and the kon is 66200 M⁻¹ s⁻¹.

Consider B8, for which the Kd came to 68.9 nM, the koff stood at 0.00397 s⁻¹ and the kon came out at 57700 M⁻¹ s⁻¹.

Regarding B9, the affinity, expressed as Kd, was 67.1 nM; the koff was 0.00387 s⁻¹; the kon is 57800 M⁻¹ s⁻¹.

For the molecule B10, the Kd was 66.2 nM, the koff was 0.00409 s⁻¹ and the kon was found to be 61900 M⁻¹ s⁻¹.

As for B11, the Kd amounted to 59.3 nM, the koff was determined as 0.00429 s⁻¹ and the kon worked out at 75100 M⁻¹ s⁻¹.

As to B12, the Kd worked out at 60.2 nM, the off-rate constant (koff) came to 0.00441 s⁻¹ and the kon worked out at 73300 M⁻¹ s⁻¹.

The target of the next assay is T2, truncated hTfR1 of SEQ ID NO:122. In words: SPR follow-up, 4 replicates, FLAG-captured hTfR1, scFv injected. Here is the method: as §1
The selected molecules were produced as described above.
The molecule B1 showed a Kd of 66.2 nM, a koff of 0.00439 s⁻¹ and a kon of 67100 M⁻¹ s⁻¹.

Turning to B3, the equilibrium dissociation constant (Kd) came out at 62.6 nM, the koff is 0.00482 s⁻¹ and the kon came to 85800 M⁻¹ s⁻¹.

Molecule B4 gave a Kd of 69.5 nM, a koff of 0.00463 s⁻¹ and a kon of 67000 M⁻¹ s⁻¹.

B6 had a Kd of 58.7 nM, a koff of 0.00419 s⁻¹ and a kon of 74900 M⁻¹ s⁻¹.

For B10, the Kd turned out to be 55.5 nM, the koff stood at 0.00465 s⁻¹ and the kon turned out to be 87200 M⁻¹ s⁻¹.

Take B11: the Kd worked out at 71.3 nM, the koff turned out to be 0.00478 s⁻¹ and the kon worked out at 67300 M⁻¹ s⁻¹.

With B12, the affinity, expressed as Kd, was 48.6 nM; the koff was determined as 0.00449 s⁻¹; the kon came to 95700 M⁻¹ s⁻¹.

The target in a further assay is T1, truncated cTfR1 of SEQ ID NO:123. In words: SPR, TfR1 amine-coupled, Fab injected, 1:1 fit. Here is the method: (§2) Binding of the purified Fabs to human and cynomolgus TfR1 was evaluated using either SPR (FIG. 44) or indirect ELISA (FIG. 45). For SPR, a Biacore 8K instrument (Cytiva) was used. […] The Fabs were injected over the chip using a 2-fold dilution series in four steps starting at 100 nM. The interaction was measured using the single cycle kinetics method with a contact time of 120 s at a flow rate of 30 μl/min followed by a dissociation time of 1000 s. Regeneration of the surface between cycles was done by injecting 3M MgCl₂. The binding data was fitted to a 1:1 interaction model. The Fabs were diluted in HBS-EP+ (Cytiva, #BR100669). Experiments were performed at 25° C.
B13: the Kd amounted to 12 nM. In other words, the double-digit nanomolar range.

Molecule B14 displayed a Kd of 164 nM.

In turn, B15 yielded a Kd of 168 nM.

Consider B16, for which the Kd turned out to be 8 nM. This Kd lies about 21-fold lower than the previous one.

For B17, the Kd was determined as 39 nM. This Kd lies about 4.9-fold higher than the previous one.

A further assay has as its target T2, truncated hTfR1 of SEQ ID NO:122. Kind of assay: SPR, TfR1 amine-coupled, Fab injected, 1:1 fit. Here is the method:
as §2
B13 displayed a Kd of 8.7 nM.

Molecule B14 showed a Kd of 156 nM.

For B15, binding was put at a Kd of 16 nM.

Consider B16, for which the Kd was found to be 5.1 nM. This Kd lies about 3.1-fold lower than the previous one.

For the molecule B17, the Kd was 20 nM.

The values above are taken from patent US20250388664A1 (BIOARCTIC, published 2025).
